Assay results: IntAct's records for PubMed 29892012

B1: Disks large-associated protein 2 (Homo sapiens), Q9P1A6 (parent)
chain: MGTAQVLPGILQKHCCILPDRNTESQCTLCGEPEEEEAGDLVQPGISFPGPAEEDLDPQYSWSPTQHFNEERYSPAPRSMKGLSGSRTQPPLCSGHTCGLAPPEDCEHLHHGPDARPPYLLSPADSCPGGRHRCSPRSSVHSECVMMPVVLGDHVSSSTFPRMHYSSHYDTRDDCAVAHAGAKINRIPANLLDQFEKQLPLHRDGFHTLQYQRTSAAAEQRSESPGRIRHLVHSVQKLFTKSHSLEGSSKSNANGTKADGRADDHHHAHHAKHSKRSKSKERKPEGKPRPGMSSWWSSDDNLDSDSTYRTPSVLNRHHLGPVAHCYPDALQSPFGDLSLKTSKSNNDVKCSACEGLALTPDAKYLKRSSWSTLTVSQAKEAYRKSSLNLDKPLLHQDAKPALRPCHYLQVPQDEWGGYPTGGKDEEIPCRRMRSGSYIKAMGDEESGESDSSPKTSPKSAILPEPLLKSIGQRPLGEHQTQTYLQAASDVPVGHSLDPAANYNSPKFRSRNQSYMRAVSTLSQASCVSQVSEAEINGQFESVCESVFSEVESQAMDALDLPGCFRTRSHSYLRAIQAGYSQDDECIPMMTPSDITSTIRSTAAVSYTNYKKTPPPVPPRTTSKPLISVTAQSSTESTQDAYQDSRAQRMSPWPQDSRGLYNSTDSLDSNKAMNLALETAAAQRHLPESQSSSVRTSDKAILVSKAEELLKSRCSSIGIQDSEFPEHQPYPRSDVETATDSDTESRGLREYHSVGVQVEDEKRHGRFKRSNSVTAAVQADLELEGFPGHITTEDKGLQFGSSFQRHSEPSTPTQYSAVRTVRTQGLFSYREDYRTQVDTSTLPPPDPWLEPAIDTVETGRMSPCRRDGSWFLKLLHAETKRMEGWCKEMEREAEENDLSEEILGKIRSAVGSAQLLMSQKFQQFYWLCQQNMDPSAMPRPTSQDLAGYWDMLQLSIEDVSMKFDELQRLRLNDWKMMESPERKEERKVPPPIPKKPPKGKFPITREKSLDLPDRQRQEARRRLMAAKRAASFRQNSASERADSIEIYIPEAQTRL
partner: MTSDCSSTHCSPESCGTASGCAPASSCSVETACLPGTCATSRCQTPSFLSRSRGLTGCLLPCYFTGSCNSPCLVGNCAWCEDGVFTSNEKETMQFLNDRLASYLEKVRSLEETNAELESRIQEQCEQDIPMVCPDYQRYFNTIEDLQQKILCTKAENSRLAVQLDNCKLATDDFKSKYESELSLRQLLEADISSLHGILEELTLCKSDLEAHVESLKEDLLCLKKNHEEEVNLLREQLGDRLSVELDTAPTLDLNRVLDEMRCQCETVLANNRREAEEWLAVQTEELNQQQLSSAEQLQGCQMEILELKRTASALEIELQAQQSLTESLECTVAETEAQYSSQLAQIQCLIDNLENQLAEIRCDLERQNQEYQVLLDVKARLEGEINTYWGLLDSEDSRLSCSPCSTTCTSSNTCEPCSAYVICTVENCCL
B2: Multifunctional procollagen lysine hydroxylase and glycosyltransferase LH3 (Homo sapiens), O60568 (parent)
chain: MTSSGPGPRFLLLLPLLLPPAASASDRPRGRDPVNPEKLLVITVATAETEGYLRFLRSAEFFNYTVRTLGLGEEWRGGDVARTVGGGQKVRWLKKEMEKYADREDMIIMFVDSYDVILAGSPTELLKKFVQSGSRLLFSAESFCWPEWGLAEQYPEVGTGKRFLNSGGFIGFATTIHQIVRQWKYKDDDDDQLFYTRLYLDPGLREKLSLNLDHKSRIFQNLNGALDEVVLKFDRNRVRIRNVAYDTLPIVVHGNGPTKLQLNYLGNYVPNGWTPEGGCGFCNQDRRTLPGGQPPPRVFLAVFVEQPTPFLPRFLQRLLLLDYPPDRVTLFLHNNEVFHEPHIADSWPQLQDHFSAVKLVGPEEALSPGEARDMAMDLCRQDPECEFYFSLDADAVLTNLQTLRILIEENRKVIAPMLSRHGKLWSNFWGALSPDEYYARSEDYVELVQRKRVGVWNVPYISQAYVIRGDTLRMELPQRDVFSGSDTDPDMAFCKSFRDKGIFLHLSNQHEFGRLLATSRYDTEHLHPDLWQIFDNPVDWKEQYIHENYSRALEGEGIVEQPCPDVYWFPLLSEQMCDELVAEMEHYGQWSGGRHEDSRLAGGYENVPTVDIHMKQVGYEDQWLQLLRTYVGPMTESLFPGYHTKARAVMNFVVRYRPDEQPSLRPHHDSSTFTLNVALNHKGLDYEGGGCRFLRYDCVISSPRKGWALLHPGRLTHYHEGLPTTWGTRYIMVSFVDP
partner: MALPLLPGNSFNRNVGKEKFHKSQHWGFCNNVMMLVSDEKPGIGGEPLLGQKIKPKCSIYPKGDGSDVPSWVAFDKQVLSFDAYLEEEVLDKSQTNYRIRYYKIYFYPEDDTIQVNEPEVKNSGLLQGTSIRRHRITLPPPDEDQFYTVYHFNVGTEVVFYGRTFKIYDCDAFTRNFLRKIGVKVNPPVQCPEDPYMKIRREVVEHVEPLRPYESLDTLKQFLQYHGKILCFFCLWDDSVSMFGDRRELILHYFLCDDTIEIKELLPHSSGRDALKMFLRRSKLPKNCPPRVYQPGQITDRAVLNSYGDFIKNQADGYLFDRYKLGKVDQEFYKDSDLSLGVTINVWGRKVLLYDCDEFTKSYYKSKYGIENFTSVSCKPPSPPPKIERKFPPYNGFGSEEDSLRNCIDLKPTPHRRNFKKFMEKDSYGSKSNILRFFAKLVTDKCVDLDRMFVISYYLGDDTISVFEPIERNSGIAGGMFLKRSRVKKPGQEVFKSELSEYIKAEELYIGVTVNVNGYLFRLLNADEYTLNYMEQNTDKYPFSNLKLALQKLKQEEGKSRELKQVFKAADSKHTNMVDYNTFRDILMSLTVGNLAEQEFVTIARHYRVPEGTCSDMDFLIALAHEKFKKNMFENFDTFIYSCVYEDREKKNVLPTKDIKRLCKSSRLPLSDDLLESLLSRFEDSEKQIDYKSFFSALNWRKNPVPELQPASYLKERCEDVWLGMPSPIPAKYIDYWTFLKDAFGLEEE
B3: Inositol polyphosphate 5-phosphatase K (Homo sapiens), Q9BT40 (parent)
chain: MSSRKLSGPKGRRLSIHVVTWNVASAAPPLDLSDLLQLNNRNLNLDIYVIGLQELNSGIISLLSDAAFNDSWSSFLMDVLSPLSFIKVSHVRMQGILLLVFAKYQHLPYIQILSTKSTPTGLFGYWGNKGGVNICLKLYGYYVSIINCHLPPHISNNYQRLEHFDRILEMQNCEGRDIPNILDHDLIIWFGDMNFRIEDFGLHFVRESIKNRCYGGLWEKDQLSIAKKHDPLLREFQEGRLLFPPTYKFDRNSNDYDTSEKKRKPAWTDRILWRLKRQPCAGPDTPIPPASHFSLSLRGYSSHMTYGISDHKPVSGTFDLELKPLVSAPLIVLMPEDLWTVENDMMVSYSSTSDFPSSPWDWIGLYKVGLRDVNDYVSYAWVGDSKVSCSDNLNQVYIDISNIPTTEDEFLLCYYSNSLRSVVGISRPFQIPPGSLREDPLGEAQPQI
partner: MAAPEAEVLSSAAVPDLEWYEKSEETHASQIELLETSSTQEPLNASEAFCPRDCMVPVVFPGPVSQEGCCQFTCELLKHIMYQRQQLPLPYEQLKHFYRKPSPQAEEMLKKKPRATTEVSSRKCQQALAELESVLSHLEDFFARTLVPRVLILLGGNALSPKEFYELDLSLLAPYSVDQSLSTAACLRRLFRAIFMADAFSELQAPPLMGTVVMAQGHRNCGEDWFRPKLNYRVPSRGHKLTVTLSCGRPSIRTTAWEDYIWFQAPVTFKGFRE
B4: Protein VAC14 homolog (Homo sapiens), Q08AM6 (parent)
chain: MNPEKDFAPLTPNIVRALNDKLYEKRKVAALEIEKLVREFVAQNNTVQIKHVIQTLSQEFALSQHPHSRKGGLIGLAACSIALGKDSGLYLKELIEPVLTCFNDADSRLRYYACEALYNIVKVARGAVLPHFNVLFDGLSKLAADPDPNVKSGSELLDRLLKDIVTESNKFDLVSFIPLLRERIYSNNQYARQFIISWILVLESVPDINLLDYLPEILDGLFQILGDNGKEIRKMCEVVLGEFLKEIKKNPSSVKFAEMANILVIHCQTTDDLIQLTAMCWMREFIQLAGRVMLPYSSGILTAVLPCLAYDDRKKSIKEVANVCNQSLMKLVTPEDDELDELRPGQRQAEPTPDDALPKQEGTASGGPDGSCDSSFSSGISVFTAASTERAPVTLHLDGIVQVLNCHLSDTAIGMMTRIAVLKWLYHLYIKTPRKMFRHTDSLFPILLQTLSDESDEVILKDLEVLAEIASSPAGQTDDPGPLDGPDLQASHSELQVPTPGRAGLLNTSGTKGLECSPSTPTMNSYFYKFMINLLKRFSSERKLLEVRGPFIIRQLCLLLNAENIFHSMADILLREEDLKFASTMVHALNTILLTSTELFQLRNQLKDLKTLESQNLFCCLYRSWCHNPVTTVSLCFLTQNYRHAYDLIQKFGDLEVTVDFLAEVDKLVQLIECPIFTYLRLQLLDVKNNPYLIKALYGLLMLLPQSSAFQLLSHRLQCVPNPELLQTEDSLKAAPKSQKADSPSIDYAELLQHFEKVQNKHLEVRHQRSGRGDHLDRRVVL
partner: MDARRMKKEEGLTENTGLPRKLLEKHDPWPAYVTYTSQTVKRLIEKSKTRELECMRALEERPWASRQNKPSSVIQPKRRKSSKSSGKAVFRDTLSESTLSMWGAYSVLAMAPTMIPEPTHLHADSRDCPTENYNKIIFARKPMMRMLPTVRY
B5: Zyxin (Homo sapiens), Q15942 (parent)
chain: MAAPRPSPAISVSVSAPAFYAPQKKFGPVVAPKPKVNPFRPGDSEPPPAPGAQRAQMGRVGEIPPPPPEDFPLPPPPLAGDGDDAEGALGGAFPPPPPPIEESFPPAPLEEEIFPSPPPPPEEEGGPEAPIPPPPQPREKVSSIDLEIDSLSSLLDDMTKNDPFKARVSSGYVPPPVATPFSSKSSTKPAAGGTAPLPPWKSPSSSQPLPQVPAPAQSQTQFHVQPQPQPKPQVQLHVQSQTQPVSLANTQPRGPPASSPAPAPKFSPVTPKFTPVASKFSPGAPGGSGSQPNQKLGHPEALSAGTGSPQPPSFTYAQQREKPRVQEKQHPVPPPAQNQNQVRSPGAPGPLTLKEVEELEQLTQQLMQDMEHPQRQNVAVNELCGRCHQPLARAQPAVRALGQLFHIACFTCHQCAQQLQGQQFYSLEGAPYCEGCYTDTLEKCNTCGEPITDRMLRATGKAYHPHCFTCVVCARPLEGTSFIVDQANRPHCVPDYHKQYAPRCSVCSEPIMPEPGRDETVRVVALDKNFHMKCYKCEDCGKPLSIEADDNGCFPLDGHVLCRKCHTARAQT
B6: Ribosome assembly protein METTL17, mitochondrial (Homo sapiens), Q9H7H0 (parent)
chain: MAAALKCLLTLGRWCPGLGVAPQARALAALVPGVTQVDNKSGFLQKRPHRQHPGILKLPHVRLPQALANGAQLLLLGSAGPTMENQVQTLTSYLWSRHLPVEPEELQRRARHLEKKFLENPDLSQTEEKLRGAVLHALRKTTYHWQELSYTEGLSLVYMAARLDGGFAAVSRAFHEIRARNPAFQPQTLMDFGSGTGSVTWAAHSIWGQSLREYMCVDRSAAMLVLAEKLLKGGSESGEPYIPGVFFRQFLPVSPKVQFDVVVSAFSLSELPSKADRTEVVQTLWRKTGHFLVLVENGTKAGHSLLMDARDLVLKGKEKSPLDPRPGFVFAPCPHELPCPQLTNLACSFSQAYHPIPFSWNKKPKEEKFSMVILARGSPEEAHRWPRITQPVLKRPRHVHCHLCCPDGHMQHAVLTARRHGRDLYRCARVSSWGDLLPVLTPSAFPPSTAQDPSES
partner: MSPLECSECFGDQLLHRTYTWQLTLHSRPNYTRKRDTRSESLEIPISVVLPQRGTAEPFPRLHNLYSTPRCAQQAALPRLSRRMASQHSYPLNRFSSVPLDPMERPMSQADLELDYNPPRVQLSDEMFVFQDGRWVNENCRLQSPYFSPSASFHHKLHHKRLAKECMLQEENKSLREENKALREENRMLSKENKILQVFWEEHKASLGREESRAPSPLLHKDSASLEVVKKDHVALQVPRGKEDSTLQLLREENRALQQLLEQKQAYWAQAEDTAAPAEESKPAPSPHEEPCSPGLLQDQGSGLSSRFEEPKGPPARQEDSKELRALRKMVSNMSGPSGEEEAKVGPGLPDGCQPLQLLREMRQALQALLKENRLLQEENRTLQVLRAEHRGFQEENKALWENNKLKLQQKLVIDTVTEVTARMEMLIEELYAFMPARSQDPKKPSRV

Variants of: B1
Settings: with KRT40, Q6A162

effect of a mutation on the interaction	Variant
with no effect	R818T

Variants of: B2
Settings: with efhc2_human EFHC2, Q5JST6

effect of a mutation on the interaction	Variant
with no effect	R235Q

Variants of: B3
Settings: with md2bp_human MAD2L1BP

effect of a mutation on the interaction	Variant
disrupting interaction strength	R437K

Variants of: B4
Settings: with cdrt4_human CDRT4, Q8N9R6

effect of a mutation on the interaction	Variant
with no effect	A127S

Variants of: B5
Settings: with pf21a_human PHF21A

effect of a mutation on the interaction	Variant
with no effect	R167G

Variants of: B6
Settings: with cby2_human CBY2, Q8NA61

effect of a mutation on the interaction	Variant
with no effect	R212H
